In PMC6328613 one finds Kd and recruitment of coatomer (δ-COP, ε-COP) to liposomes in the presence of myr-Arf1, with MBP-Scyl1 against MBP-IPIP27A data, which are given here for three substances.

Experiment [1] deals with MBP-Scyl1 (UniProt Q96KG9). The experiment can be described thus: SPR; ProteOn XPR36, GLH chip; cross-linked anti-MBP antibody, MBP-Scyl1 captured (3000 RU), GST-GORAB variants as analyte at 30 nM, 100 µL/min, 120 s association, 600 s dissociation; 150 mM NaCl, 10 mM HEPES, 0.02% Tween-20, pH 7.4. (In general: SPR reads the build-up and loss of mass on a sensor chip optically.)
Chain of UniProt Q96KG9 (Q96KG9 whole entry): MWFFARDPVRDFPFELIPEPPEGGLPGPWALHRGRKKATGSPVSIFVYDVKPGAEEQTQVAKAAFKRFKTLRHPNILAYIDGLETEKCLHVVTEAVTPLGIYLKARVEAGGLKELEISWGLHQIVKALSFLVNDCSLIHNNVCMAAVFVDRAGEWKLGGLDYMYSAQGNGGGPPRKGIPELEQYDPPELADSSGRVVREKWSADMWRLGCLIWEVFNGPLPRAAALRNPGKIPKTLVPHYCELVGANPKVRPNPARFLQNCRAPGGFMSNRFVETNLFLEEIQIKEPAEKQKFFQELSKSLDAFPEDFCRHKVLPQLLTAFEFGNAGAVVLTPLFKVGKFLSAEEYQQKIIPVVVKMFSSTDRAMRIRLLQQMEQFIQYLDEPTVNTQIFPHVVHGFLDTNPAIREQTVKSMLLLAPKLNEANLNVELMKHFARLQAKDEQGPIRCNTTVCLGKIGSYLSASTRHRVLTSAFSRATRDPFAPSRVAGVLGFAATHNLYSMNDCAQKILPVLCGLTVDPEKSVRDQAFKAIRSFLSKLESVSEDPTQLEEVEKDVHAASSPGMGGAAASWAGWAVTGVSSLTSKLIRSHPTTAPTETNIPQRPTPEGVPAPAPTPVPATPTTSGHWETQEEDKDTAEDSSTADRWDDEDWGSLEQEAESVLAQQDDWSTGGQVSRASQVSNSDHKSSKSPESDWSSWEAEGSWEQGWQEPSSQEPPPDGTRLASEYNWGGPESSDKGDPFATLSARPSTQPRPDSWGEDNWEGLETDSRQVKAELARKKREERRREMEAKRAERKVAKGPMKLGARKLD

Experiment [2] concerns the target MBP-Scyl1 (UniProt Q96KG9).

As usually defined, the Kd is the constant that tells how readily two partners part at equilibrium. High values mean weaker binding, low ones tighter binding. In the case of GST-GORAB K190del (natural protein), the equilibrium dissociation constant (Kd) with MBP-Scyl1 [1] was determined as 0.52 nM. Consider “recombinant mouse coatomer isotype γ2ζ1 (from UniProt Q9QXK3 1-871; P61924 1-177; Q5XJY5 1-511; O89079 1-308; O55029 1-905) (complex)”, for which, in the experiment with MBP-Scyl1 [2], the recruitment of coatomer (δ-COP, ε-COP) to liposomes in the presence of myr-Arf1, with MBP-Scyl1 against MBP-IPIP27A amounted to 2 fold. GST-GORAB (natural protein) showed a dissociation constant (Kd) with MBP-Scyl1 [1] of 0.52 nM.
